Patent publication US20030027246A1, “Immunogenic peptides derived from prostate-specific membrane antigen (PSMA) and uses thereof” (priority 2000, published 2003)
Marks after values point to notes of the source that are not given here.

Legend:
[1] = test system: A2Kb transgenic mouse; assay: Immunogenicity of PSMA derived peptides in A2Kb transgenic mice (51Cr-release CTL assay); format: in vivo; details: 100.0 μg peptide + I-Ab-restricted peptide in IFA s.c.; splenocytes re-stimulated 6-7 days; 4 hr 51Cr-release vs peptide-pulsed P815-A2Kb targets
Description: The A2Kb transgenic mouse was used to assess the immunogenicity of the HLA-A0201 binding PSMA peptides. Mice of the B1O background (transgenic for the A2Kb chimeric gene) were purchased from the Scripps Clinic in California, USA. Mice were injected subcutaneously at the base of the tail with a dose of inoculum prepared by emulsifying 100.0 μg of the test peptide and 100.0 μg of an I-A^b-restricted peptide (described in Milich, D. R. et al. (1987) J. Immunol 139: 1223-1231) in incomplete Freund's adjuvant (IFA). Spleens of the experimental animals were collected on the 10th or 11th day post immunization. Spleenocytes of the experimental mice were prepared and cultured to enrich for CTLs before being assessed for effector activity. In vitro re-stimulation of the in vivo generated CTLs was performed by co-culturing in a 25 cm^2 tissue culture flask 3×10^7 responder cells (i.e. spleenocytes) with 1.3×10^7 irradiated autologous LPS (lipopolysaccharide)-blasts which had been pulsed with the respective peptide (100.0 μg per 10^8 cells). Cultures were kept in a 37° C., humidified CO2 incubator for 6-7 days before being tested for effector function in a standard 4 hr in vitro ^51Cr-release CTL assay as follows. […] Supernatant aliquots were then removed and counted for radioactivity.

[2] = biological target: T1, HLA-A0201 molecules on T2 cells (Homo sapiens, UniProt P04439, D140Y/D185E/D98H/E176V/E277Q/G131W/G231S/I119V/I121R/I166T/I218V/L300P/L318F/N151K/N90K/P208A/P217A/Q86G/Q94H/R138H/R169H/T345S); assay: HLA-A0201 binding/stabilization of PSMA derived peptides on T2 cells (BB7.2 flow cytometry); format: cell-based; details: for Fluorescence Index (FI): T2 cells; for HLA-A0201 binding as judged by Fluorescence Index (FI) values: membrane-bound HLA-A0201 on T2 cells, result in words
T1 construct: endogenous in cells; host or cells: T2 cell line (Dr. Peter Creswell, Yale University)
Description: The ability of the PSMA derived peptides described in Table 1 to stabilize membrane-bound HLA-A0201 molecule was assessed utilizing the T2 cell line (Dr. Peter Creswell, Yale University). The cell line has been well documented to have a defective TAP (i.e. Transporter for Antigen Processing) transporter function. […] The stability of the surface HLA-A0201 molecules can be restored upon interaction with suitable exogenous peptides. The stabilization of the conformation of the class 1 MHC molecules is accompanied by the formation of an immunodominant epitope recognized by a mouse monoclonal antibody (designated BB7.2; American Type Culture Collection (ATCC)). Thus, the detection of this specific epitope is indicative of stable membrane-bound HLA-A0201 molecules loaded with peptide.
T2 cells were propagated in Iscove's complete medium (Iscove's medium supplemented with 10% heat-inactivated bovine serum, 120.0 units per ml of penicillin G sodium, 120 μg per ml of streptomycin sulphate, and 0.35 mg per ml of L-glutamine). The ability of PSMA peptides (Table 1) to bind and stabilize surface HLA-A0201 molecules on T2 cells was determined utilizing a protocol documented in the art (Deng, Y. (1997) J Immunol 158:1507-1515). In essence, 0.5×10^6 T2 cells were incubated with 125.0 μM of the test peptide in 200.0 μl of serum-free culture medium (Iscove's medium supplemented with 120.0 units per ml of penicillin G sodium, 120.0 μg per ml of streptomycin sulphate and 0.35 mg per ml of L-glutamine) overnight at 37° C. Subsequently, cells were washed twice with Iscove's medium (without bovine serum) to remove free PSMA peptide. To the cell pellet was added 1.0 ml of complete Iscove's medium (supplemented with fetal bovine serum (10% final)) containing 5.0 μg per ml of brefeldin A (Sigma), 12.5 μg per ml of anisomycin (Sigma) and 5.0 μg per ml of cyclohexamide (Sigma). […] The cells were subsequently incubated 30 min on ice prior to two washes with ice-cold PBA (phosphate buffered saline (pH 7.2) containing 2.0% bovine serum). 100.0 μl of PBA containing 5.0 μg of monoclonal antibody BB7.2 was added to each test sample. The reaction was allowed to proceed on ice for 45 min. Cells were then washed three times with ice-cold PBA. The binding of BB7.2 was detected via the addition of 100.0 μl of PBA containing 1.0 μg of goat anti-mouse IgG-Fc fluorescein (FITC) conjugate (BETHYL Laboratories Inc.). After a 30 min incubation on ice, cells were twice washed with ice-cold PBA, and twice with ice-cold PBS (pH 7.2). Cells were immediately fixed by the addition of 50.0 μl of 1.0% paraformaldehyde. Samples were analyzed by Flow Cytometry. Results were expressed in units of Fluorescence Index (FI), calculated by the equation: [formula]
An FI value of 0.5 or greater was deemed to be significant.

[3] = 125.0 μM test peptide, overnight at 37° C., then 3.0 hr de-stabilization step, FI of 0.5 or greater deemed significant

| Sequence | Fluorescence Index (FI) [2, 3] | HLA-A0201 binding as judged by Fluorescence Index (FI) values [2] | further results |
| --- | --- | --- | --- |
| ALFDIESKV (CLP337) [CLP-337, PSMA derived peptide, amino acid position 711-719] |  |  | Immunogenicity: epitope-specific CTL responses (FIG. 1) [1]: immunogenic and capable of eliciting epitope-specific CTL responses |
| ELAHYDVLL (CLP330) [CLP-330, PSMA derived peptide, amino acid position 109-117] | 0.7 | demonstrated HLA-A0201 binding |  |
| LDSVELAHY (CLP324) [CLP-324, reference compound] |  | does not exhibit binding | Fluorescence Index (FI) ([2]; 125.0 μM peptide, analysis did not include 3 hr de-stabilization step): 0** |
| LLHETDSAV [CLP-326] |  | demonstrated HLA-A0201 binding |  |
| LMYSLVHNL [CLP-333] |  | demonstrated HLA-A0201 binding |  |
| MMNDQLMFL [CLP-336] |  | demonstrated HLA-A0201 binding | Immunogenicity: epitope-specific CTL responses (FIG. 1) [1]: immunogenic and capable of eliciting epitope-specific CTL responses |
| NLNGAGDPL [CLP-331] | 0 |  |  |
| NMKAFLDEL [CLP-329] | 0 |  |  |
| PMFKYHLTV [CLP-334] | 0 |  |  |
| VLAGGFFLL (CLP328) [CLP-328, PSMA derived peptide, amino acid position 27-35] | 1.3 | demonstrated HLA-A0201 binding |  |
| VLRMMNDQL [CLP-335] | 0.3 |  |  |
| WLCAGALVL (CLP327) [CLP-327, PSMA derived peptide, amino acid position 20-28] | 0 |  |  |
